The supplement of paper PMC10567573
± gives the standard deviation.

Experiment: protein stability index of a GFP-peptide fusion (GPS, HEK-293T) (PSI 1-6); higher = more stable
[1] = treatment: DMSO, c terminus: a fixed tail appended
[2] = treatment: MLN4924 1 uM, 8 h, c terminus: a fixed tail appended
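Also: 24-mer peptide tiles fused after GFP, lentivirally expressed, FACS-sorted into six equal bins by GFP/DsRed ratio, decoded by Illumina sequencing, PSI is the read-weighted mean bin number.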

**Q.** What does the source list for EFAEMVEREEEDDALDSEGRDSEG [KCNG1]?
**A.** protein stability index [1]: 5.68 ± 0.22; protein stability index [2]: 5.62 ± 0.29

**Q.** For RGGGGGGGGGAPRGRYGPPSRRSE [SRSF1], which protein stability index [1] is on record?
**A.** The protein stability index was 5.61 ± 0.1.

**Q.** What about the protein stability index [2] of the same sequence?
**A.** Its protein stability index is 5.49 ± 0.071.

**Q.** For RLDGCIYAIKRSKKPLAGSVDEQN [WEE1], which protein stability index [1] is on record?
**A.** The protein stability index was 3.54 ± 0.28.

**Q.** What about the protein stability index [2] of the same sequence?
**A.** The protein stability index was 3.73 ± 0.22.

**Q.** For PPETKHQALSGTPKKGPAPSLSPG [TSPAN10], which protein stability index [1] is on record?
**A.** Its protein stability index is 5.31 ± 0.31.

**Q.** And the protein stability index [2]?
**A.** Its protein stability index is 5.31 ± 0.13.

**Q.** Which protein stability index [1] does the source give for ICPLKERRFGAVACGVAMELYVFG [GAN] here?
**A.** The protein stability index was 2.36 ± 0.53.

**Q.** What about the protein stability index [2] of the same sequence?
**A.** The protein stability index was 2.96 ± 1.1.

**Q.** Which protein stability index [1] does the source give for DIWSKSNYQVFQKVTDHATTALLH [MED27] here?
**A.** Its protein stability index is 2.44 ± 0.27.

**Q.** What about the protein stability index [2] of the same sequence?
**A.** Its protein stability index is 2.34 ± 0.31.

**Q.** Which protein stability index [1] does the source give for VRSGIVEYLSLVKGGQDVKKKVHL [PRIM1] here?
**A.** Its protein stability index is 2.43 ± 0.26.

**Q.** And the protein stability index [2]?
**A.** Its protein stability index is 2.28 ± 0.44.

**Q.** With ALLKFREDEGFVREEEDRALPENE [KCNA4] as the sequence, how does the protein stability index [1] read?
**A.** The protein stability index was 5.31 ± 0.32.

**Q.** And the protein stability index [2]?
**A.** Its protein stability index is 5.43 ± 0.19.

**Q.** Which protein stability index [1] does the source give for NQEDAIHFHRTLKEACDQHGPDLY [CPOX] here?
**A.** Its protein stability index is 4.33 ± 0.21.

**Q.** And the protein stability index [2]?
**A.** The protein stability index was 4.47 ± 0.15.

**Q.** Which protein stability index [1] does the source give for HHRVQENQMDKARRHPQGAWKELD [CHGB] here?
**A.** Its protein stability index is 4.45 ± 0.11.

**Q.** What about the protein stability index [2] of the same sequence?
**A.** The protein stability index was 4.4 ± 0.11.

**Q.** What does the source list for GSVLRIQPLRTPRDEAIYECVASN [PTPRD]?
**A.** protein stability index [1]: 3.24 ± 0.12; protein stability index [2]: 3.17 ± 0.43

**Q.** With QRTVGQLMELCRLYHRADVEKVLR [EDARADD] as the sequence, how does the protein stability index [1] read?
**A.** The protein stability index was 2.38 ± 0.45.

**Q.** What about the protein stability index [2] of the same sequence?
**A.** Its protein stability index is 2 ± 0.22.

**Q.** Which results are given for DSDNSGGGGGGGGGGGGGGGTSSN [ANKRD17]?
**A.** protein stability index [1]: 5.39 ± 0.31; protein stability index [2]: 5.58 ± 0.22

**Q.** With GFKHRLWVYSGRRGVHCWVCDESV [PRIM1] as the sequence, how does the protein stability index [1] read?
**A.** The protein stability index was 2.81 ± 1.4.

**Q.** What about the protein stability index [2] of the same sequence?
**A.** Its protein stability index is 2.31 ± 0.59.

**Q.** With VASRNLFPKDTLMNLHVYISEHEH [CLPTM1] as the sequence, how does the protein stability index [1] read?
**A.** The protein stability index was 2.35 ± 0.34.

**Q.** What about the protein stability index [2] of the same sequence?
**A.** The protein stability index was 2.37 ± 0.51.

**Q.** Which protein stability index [1] does the source give for HVFQRQKSELSDGIAILVGSNDRV [TRIM55] here?
**A.** Its protein stability index is 3.18 ± 0.25.

**Q.** What about the protein stability index [2] of the same sequence?
**A.** The protein stability index was 3.21 ± 0.21.

**Q.** Which results are given for NLPFWVKEKANSLKNEIQEVEELD [SPATS1]?
**A.** protein stability index [1]: 4.7 ± 0.32; protein stability index [2]: 4.82 ± 0.083

**Q.** With GLSGSGVAFVCAFSEALAEGAVKM [PYCR3] as the sequence, how does the protein stability index [1] read?
**A.** The protein stability index was 2.58 ± 0.65.

**Q.** What about the protein stability index [2] of the same sequence?
**A.** Its protein stability index is 2.25 ± 0.34.

**Q.** With YFTWDEVAQRSGCEERWLVIDRKV [FADS1] as the sequence, how does the protein stability index [1] read?
**A.** The protein stability index was 2.65 ± 0.17.

**Q.** What about the protein stability index [2] of the same sequence?
**A.** Its protein stability index is 2.82 ± 0.27.

**Q.** For KDQQTFARSVGLKWRKVGRSLQRG [TRADD], which protein stability index [1] is on record?
**A.** Its protein stability index is 3.27 ± 0.34.

**Q.** What about the protein stability index [2] of the same sequence?
**A.** The protein stability index was 3.49 ± 0.3.

**Q.** Which results are given for ITTVSKAKGASLFTCDLQHTETGE [VPS39]?
**A.** protein stability index [1]: 4.06 ± 0.25; protein stability index [2]: 3.99 ± 0.21

**Q.** With APQNLTRWTFEKACHPFLLGPPLV [TOR1AIP2] as the sequence, how does the protein stability index [1] read?
**A.** The protein stability index was 2.4 ± 0.21.

**Q.** What about the protein stability index [2] of the same sequence?
**A.** Its protein stability index is 2.08 ± 0.18.

**Q.** Which results are given for GGQEEASQEAGLPAGAGPSPTFPA [SEPHS2]?
**A.** protein stability index [1]: 5.56 ± 0.1; protein stability index [2]: 5.25 ± 0.23

**Q.** Which results are given for ITSSIPDTERLDDFHLSIHSDMAA [DVL3]?
**A.** protein stability index [1]: 4.08 ± 0.22; protein stability index [2]: 4.3 ± 0.17

**Q.** For KKMEQNKTAATRYRQKKRAEQEAL [ATF4], which protein stability index [1] is on record?
**A.** Its protein stability index is 4.48 ± 0.52.

**Q.** What about the protein stability index [2] of the same sequence?
**A.** The protein stability index was 4.55 ± 0.33.

**Q.** Which protein stability index [2] does the source give for FSKNLKLGIHEDSTNRRRLSELLR [HSP90AB1] here?
**A.** The protein stability index was 2.43 ± 0.39.

**Q.** For PLAMNYLDRFLSLEPVKKSRLQLL [CCND1], which protein stability index [1] is on record?
**A.** Its protein stability index is 2.23 ± 0.12.

**Q.** What about the protein stability index [2] of the same sequence?
**A.** The protein stability index was 2.27 ± 0.14.

**Q.** Which results are given for VATGSQQSLAQPLPGNTTEATPRS?
**A.** protein stability index [1]: 5.42 ± 0.44; protein stability index [2]: 5.28 ± 0.43

**Q.** With PGKKKIRWDPVRRRFIQSCPIIRI [KLHDC10] as the sequence, how does the protein stability index [1] read?
**A.** Its protein stability index is 2.01 ± 0.29.

**Q.** What about the protein stability index [2] of the same sequence?
**A.** The protein stability index was 2.1 ± 0.12.

**Q.** Which protein stability index [1] does the source give for LAAKERHCGELKRRLGLSTLGELK [TPD52L2] here?
**A.** The protein stability index was 2.85 ± 0.32.

**Q.** What about the protein stability index [2] of the same sequence?
**A.** Its protein stability index is 3.02 ± 0.33.

**Q.** For MDRKTRFIIHGFIDKGDESWVTDM [PNLIPRP1], which protein stability index [1] is on record?
**A.** Its protein stability index is 2.48 ± 0.66.

**Q.** And the protein stability index [2]?
**A.** The protein stability index was 2.51 ± 0.19.

**Q.** What does the source list for VQETNKQPPQTVNPIGHLPESLTK [ATF4]?
**A.** protein stability index [1]: 4.79 ± 0.24; protein stability index [2]: 4.86 ± 0.2

**Q.** For ANHTHTFYGHSHHSHHGHPSHQSH [C10orf62], which protein stability index [1] is on record?
**A.** Its protein stability index is 3.51 ± 0.12.

**Q.** And the protein stability index [2]?
**A.** The protein stability index was 3.46 ± 0.23.

**Q.** With GPAAFVDYFERNWEPRRDMWVRFR [ZSWIM9] as the sequence, how does the protein stability index [1] read?
**A.** Its protein stability index is 2.4 ± 0.12.

**Q.** What about the protein stability index [2] of the same sequence?
**A.** Its protein stability index is 2.46 ± 0.37.

**Q.** With STEKVVQETVLVEERRVVHASGDA [EPB41L3] as the sequence, how does the protein stability index [1] read?
**A.** Its protein stability index is 5.33 ± 0.23.

**Q.** And the protein stability index [2]?
**A.** The protein stability index was 4.93 ± 0.16.

**Q.** Which results are given for DVHELFLQMAVLVEKQADTLNVIE [STX11]?
**A.** protein stability index [1]: 2.2 ± 0.16; protein stability index [2]: 2.27 ± 0.27

**Q.** Which results are given for MAGTNALLMLENFIDGKFLPCSSY [ALDH8A1]?
**A.** protein stability index [1]: 2.19 ± 0.35; protein stability index [2]: 2.12 ± 0.26

**Q.** With DPLSTNYSLAPNTPINQNVSLHQA [NFE2L1] as the sequence, how does the protein stability index [1] read?
**A.** The protein stability index was 4.25 ± 0.45.

**Q.** And the protein stability index [2]?
**A.** Its protein stability index is 4.46 ± 0.16.

**Q.** What does the source list for KDPRQWTETHVRDWVMWAVNEFSL [ETS1]?
**A.** protein stability index [1]: 2.67 ± 1.1; protein stability index [2]: 2.23 ± 0.34

**Q.** Which results are given for NESWIKSHFSRLSEEKLALDNNAS [C10orf62]?
**A.** protein stability index [1]: 4.11 ± 0.14; protein stability index [2]: 4.29 ± 0.24

**Q.** Which results are given for DSTNVEAAFQTILTEIYRIVSQKQ [RAB11A]?
**A.** protein stability index [1]: 2.26 ± 0.35; protein stability index [2]: 2.46 ± 0.034

**Q.** Which protein stability index [1] does the source give for QLSATGQKLYVRLFQRKLSWIKMT [FAN1] here?
**A.** Its protein stability index is 2.3 ± 0.6.

**Q.** What about the protein stability index [2] of the same sequence?
**A.** The protein stability index was 2.04 ± 0.17.

**Q.** Which protein stability index [1] does the source give for EGSIWRGAQMEKEWARALETRDWG [ZSWIM9] here?
**A.** Its protein stability index is 3.37 ± 0.3.

**Q.** And the protein stability index [2]?
**A.** The protein stability index was 3.42 ± 0.21.

**Q.** With RHEVIMDRHGVYGLQRNLLVENII [TRIM63] as the sequence, how does the protein stability index [1] read?
**A.** Its protein stability index is 2.42 ± 0.13.

**Q.** And the protein stability index [2]?
**A.** The protein stability index was 2.31 ± 0.22.

**Q.** With KISGGPHISYPPLHEWVLREGEE [MAGEA3] as the sequence, how does the protein stability index (treatment: DMSO, c terminus: native) read?
**A.** The protein stability index was 2.92 ± 0.62.

**Q.** And the protein stability index (treatment: MLN4924 1 uM, 8 h, c terminus: native)?
**A.** The protein stability index was 3.33 ± 0.43.
